For experiment [1], the target named is T1, fusion protein containing the conserved region of RIFIN (PF3D7_1254800) and the transmembrane and … (Plasmodium falciparum).
T1 construct: also called fusion protein containing a conserved region
Put plainly: flow cytometry on transfected 293T cells. Background: In flow cytometry, cells or beads pass a laser one at a time.

Experiment [2] has as its target leukocyte immunoglobulin-like receptor subfamily B member 1 (LILRB1) protein (human, UniProt Q8NHL6 24-650). The experiment in a line: flow cytometry on LILRB1 protein-expressing 293T cells, APC-labeled anti-His antibody.

B1: LILRB1-Fc fusion protein (Fc fusion)
chain: GHLPKPTLWAEPGSVITQGSPVTLRCQGGQETQEYRLYREKKTAPWITRIPQELVKKGQFPIPSITWEHTGRYRCYYGSDTAGRSESSDPLELVVTGAYIKPTLSAQPSPVVNSGGNVTLQCDSQVAFDGFILCKEGEDEHPQCLNSQPHARGSSRAIFSVGPVSPSRRWWYRCYAYDSNSPYEWSLPSDLLELLVLGVSKKPSLSVQPGPIVAPEETLTLQCGSDAGYNRFVLYKDGERDFLQLAGAQPQAGLSQANFTLGPVSRSYGGQYRCYGAHNLSSEWSAPSDPLDILIAGQFYDRVSLSVQPGPTVASGENVTLLCQSQGWMQTFLLTKEGAADDPWRLRSTYQSQKYQAEFPMGPVTSAHAGTYRCYGSQSSKPYLLTHPSDPLELVVSGPSGGPSSPTTGPTSTSAGPEDQPLTPTGSDPQSGLGRHLGV
notes: Made in 293T cells and purified with Protein A. For flow cytometry it was complexed with an APC-labeled anti IgG Fc antibody; not shown: Fc part
In the case of B1, the binding result in experiment [1] is “no binding”.

B2: recombinant RIFIN protein (variable region of PF3D7_1254800 with His tag) (ligand)
chain: YETINAFIAKTIEELEGIPGITKLFGAKISQFVTPAVFRKPMSLVETILSEKKKLCLCAANKNELLCRGMNPNVPETLPKKIEVAVNEVLSSVNDTWATATTPTTFFTNP
notes: Used in solution, on plates and on latex or Luminex beads; also called RIFIN-1; RIFIN beads
Turning to B2, in experiment [2], the binding result is listed as “binds”.

The values above are taken from patent US20210187002A1 (OSAKA UNIVERSITY, published 2021).
